Data from article doi:10.1101/435008 (bioRxiv, 2019).

Target: the molecule itself
Test: SEC

B1: unphosphorylated kinase domain of With No Lysine(K) kinase-3 (WNK3) (domain or fragment)
chain: not shown
stoichiometry N: 2
